Measured values from article PMC7064771, “Repurposed Drugs That Block the Gonococcus-Complement Receptor 3 Interaction Can Prevent and Cure Gonococcal Infection of Primary Human Cervical Epithelial Cells” (mBio, 2020).

Experiments:
[1] = biological target: recombinant human CR3 I-domain (I-domain of CD11b) (human); assay: SPR
[2] = biological target: recombinant human complement receptor 3 (integrin αMβ2) (human) (UniProt P11215); assay: SPR

Chain of N. gonorrhoeae MS11 wild-type pilin (PilE) modified with the Gal(α1-3)diNAcBac disaccharide (P02974 8-165 limits assumed): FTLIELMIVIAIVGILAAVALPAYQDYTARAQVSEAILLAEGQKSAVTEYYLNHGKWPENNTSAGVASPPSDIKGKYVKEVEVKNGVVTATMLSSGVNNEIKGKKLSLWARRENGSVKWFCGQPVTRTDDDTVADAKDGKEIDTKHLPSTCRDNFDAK

N. gonorrhoeae MS11 wild-type pilin (PilE) modified with the Gal(α1-3)diNAcBac disaccharide (from UniProt P02974 8-165) (natural protein)
Kd [1]: 349 nM | Kd [2]: 907 nM
